Test results as given in article PMC12262736.
pKd: −log10 of the molar value.

Key:
[1] = target: MadS (Enterococcus faecalis); assay: MST
[2] = target: LiaS (Enterococcus faecalis); assay: MST

| Substance | pKd [1] | pKd [2] |
| --- | --- | --- |
| MadR (natural protein) | 5.09 | 5.30 |
| LiaR (natural protein) | 4.59 | 5.62 |
